The data set concerns Sindbis virus TE/5'2J-GFP. Description: percent infected (GFP+ in RFP+ ISG-expressing cells); higher = more infection (less antiviral activity). On the procedure: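 Confirmatory testing of 87 ISGs. Triplicate wells of BHK/HA-Zeo (control) or BHK/NZAP-Zeo (ZAP) cells were transduced with lentiviruses co-expressing a human ISG plus TagRFP, then infected 48 h later with SINV TE/5'2J-GFP (moi 5). The % GFP+ cells among RFP+ cells was measured by flow cytometry at 8 h post infection. Fluc lentivirus served as control. Three independent experiments.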

Where [1] appears, read: experiment: confirmatory screen 1, BHK/HA-Zeo (control).
[2] abbreviates: experiment: confirmatory screen 1, BHK/NZAP-Zeo (ZAP).
Setting [3] is: experiment: confirmatory screen 2, BHK/HA-Zeo (control).
The mark [4] stands for this setting: experiment: confirmatory screen 2, BHK/NZAP-Zeo (ZAP).
The mark [5] stands for this setting: experiment: confirmatory screen 3, BHK/HA-Zeo (control).
[6] abbreviates: experiment: confirmatory screen 3, BHK/NZAP-Zeo (ZAP).

± gives the standard deviation of the averaged measurements.
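Further: Interferon-defective BHK-21 derivatives, ZAP line overexpressing the rat ZAP N-terminal zinc finger domain fused to Zeocin resistance, GFP scored within live singlet TagRFP+ cells.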

Consider “MKLRSSHNASKTLNANNMETLIECQSEGDIKEHPLLASCESEDSICQLIEVKKRKKVLSWPFLMRRLSPASDFSGALETDLKASLFDQPLSIICGDSDTLPRPIQDILTILCLKGPSTEGIFRRAANEKARKELKEELNSGDAVDLERLPVHLLAVVFKDFLRSIPRKLLSSDLFEEWMGALEMQDEEDRIEALKQVADKLPRPNLLLLKHLVYVLHLISKNSEVNRMDSSNLAICIGPNMLTLENDQSLSFEAQKDLNNKVKTLVEFLIDNCFEIFGENIPVHSSITSDDSLEHTDSSDVSTLQNDSAYDSNDPDVESNSSSGISSPSRQPQVPMATAAGLDSAGPQDAREVSPEPIVSTVARLKSSLAQPDRRYSEPSMPSSQECLESRVTNQTLTKSEGDFPVPRVGSRLESEEAEDPFPEEVFPAVQGKTKRPVDLKIKNLAPGSVLPRALVLKAFSSSSLDASSDSSPVASPSSPKRNFFSRHQSFTTKTEKGKPSREIKKHSMSFTFAPHKKVLTKNLSAGSGKSQDFTRDHVPRGVRKESQLAGRIVQENGCETHNQTARGFCLRPHALSVDDVFQGADWERPGSPPSYEEAMQGPAARLVASESQTVGSMTVGSMRARMLEAHCLLPPLPPAHHVEDSRHRGSKEPLPGHGLSPLPERWKQSRTVHASGDSLGHVSGPGRPELLPLRTVSESVQRNKRDCLVRRCSQPVFEADQFQYAKESYI [TAGAP]”, for which the percent infected is, setting by setting: under setting [1], 91.3 ± 3%; under setting [2], 64.8 ± 2.3%; under setting [3], 86.1 ± 4.6%; under setting [4], 92.53 ± 0.75%; under setting [5], 85 ± 2%; under setting [6], 89.95 ± 0.44%.
Regarding “MASGRARCTRKLRNWVVEQVESGQFPGVCWDDTAKTMFRIPWKHAGKQDFREDQDAAFFKAWAIFKGKYKEGDTGGPAVWKTRLRCALNKSSEFKEVPERGRMDVAEPYKVYQLLPPGIVSGQPGTQKVPSKRQHSSVSSERKEEEDAMQNCTLSPSVLQDSLNNEEEGASGGAVHSDIGSSSSSSSPEPQEVTDTTEAPFQGDQRSLEFLLPPEPDYSLLLTFIYNGRVVGEAQVQSLDCRLVAEPSGSESSMEQVLFPKPGPLEPTQRLLSQLERGILVASNPRGLFVQRLCPIPISWNAPQAPPGPGPHLLPSNECVELFRTAYFCRDLVRYFQGLGPPPKFQVTLNFWEESHGSSHTPQNLITVKMEQAFARYLLEQTPEQQAAILSLV [IRF9]”, the percent infected runs as follows: under setting [1], 95.7 ± 1.1%; under setting [2], 77.9 ± 2.2%; under setting [3], 95.77 ± 0.51%; under setting [4], 95.5 ± 0.37%; under setting [5], 94.29 ± 0.52%; under setting [6], 92.97 ± 0.35%.
“MLRAGAPTGDLPRAGEVHTGTTIMAVEFDGGVVMGSDSRVSAGEAVVNRVFDKLSPLHERIYCALSGSAADAQAVADMAAYQLELHGIELEEPPLVLAAANVVRNISYKYREDLSAHLMVAGWDQREGGQVYGTLGGMLTRQPFAIGGSGSTFIYGYVDAAYKPGMSPEECRRFTTDAIALAMSRDGSSGGVIYLVTITAAGVDHRVILGNELPKFYDE [PSMB9]”: the percent infected under setting [1] was determined as 80 ± 1.9%; the percent infected under setting [2] came to 24.2 ± 0.77%; the percent infected under setting [3] was 90.2 ± 1.4%; the percent infected under setting [4] worked out at 91.27 ± 0.32%; the percent infected under setting [5] is 87.59 ± 0.53%; the percent infected under setting [6] is 83.1 ± 1.6%.
For the substance PDK1, the percent infected turned out to be 94.39 ± 0.65% under setting [1]; 65.7 ± 2.9% under setting [2]; 95.24 ± 0.62% under setting [3]; 95.39 ± 0.19% under setting [4]; 93.83 ± 0.42% under setting [5]; 93.94 ± 0.33% under setting [6].

The values are drawn from the supplement of paper PMC3353916.
